According to the supplement of paper PMC11246515:
± gives the standard deviation of the averaged measurements.

Experiment: total protein half-life in vivo (active degradation + dilution); higher = more stable protein
[1] = E. coli NCM3722 delta-clpP delta-lon delta-hslV, growth: N-lim chemostat, doubling time 6 h
[2] = E. coli NCM3722 delta-lon, growth: N-lim chemostat, doubling time 6 h
[3] = E. coli NCM3722 delta-smpB, growth: N-lim chemostat, doubling time 6 h
[4] = wild type E. coli NCM3722, growth: C-lim chemostat, doubling time 3 h
[5] = wild type E. coli NCM3722, growth: N-lim chemostat, doubling time 6 h
[6] = wild type E. coli NCM3722, growth: P-lim chemostat, doubling time 12 h
[7] = E. coli NCM3722 delta-clpP, growth: N-lim chemostat, doubling time 6 h
[8] = E. coli NCM3722 delta-hslV, growth: N-lim chemostat, doubling time 6 h
[9] = wild type E. coli NCM3722, growth: C-lim chemostat, doubling time 6 h
[10] = wild type E. coli NCM3722, growth: C-lim chemostat, doubling time 12 h
[11] = wild type E. coli NCM3722, growth: N-lim chemostat, doubling time 12 h
[12] = wild type E. coli NCM3722, growth: P-lim chemostat, doubling time 6 h

Row | Sequence | total protein half-life in vivo [1] | total protein half-life in vivo [2] | total protein half-life in vivo [3] | total protein half-life in vivo [4] | total protein half-life in vivo [5] | total protein half-life in vivo [6] | total protein half-life in vivo [7] | total protein half-life in vivo [8] | total protein half-life in vivo [9] | total protein half-life in vivo [10] | total protein half-life in vivo [11] | total protein half-life in vivo [12]
1 | MSEPLDLNQLAQKIKQWGLELGFQQVGITDTDLSESEPKLQAWLDKQYHGEMDWMARHGMLRARPHELLPGTLRVISVRMNYLPANAAFASTLKNPKLGYVSRYALGRDYHKLLRNRLKKLGEMIQQHCVSLNFRPFVDSAPILERPLAEKAGLGWTGKHSLILNREAGSFFFLGELLVDIPLPVDQPVEEGCGKCVACMTICPTGAIVEPYTVDARRCISYLTIELEGAIPEELRPLMGNRIYGCDDCQLICPWNRYSQLTTEEDFSPRKPLHAPELIELFAWSEEKFLKVTEGSAIRRIGHLRWLRNIAVALGNAPWDETILTALESRKGEHPLLDEHIAWAIAQQIERRNACIVEVQLPKKQRLVRVIEKGLPRDA | 5.59 ± 0.68 h | 2.85 ± 0.33 h | 1.41 h | > 4 h | 1.85 h | 3.79 h | – | – | – | – | – | –
2 | MSEPLLIARTPDTELFLLPGMANRHGLITGATGTGKTVTLQKLAESLSEIGVPVFMADVKGDLTGVAQAGTVSEKLLARLKNIGVNDWQPHANPVVVWDIFGEKGHPVRATVSDLGPLLLARLLNLNDVQSGVLNIIFRIADDQGLLLLDFKDLRAITQYIGDNAKSFQNQYGNISSASVGAIQRGLLSLEQQGAAHFFGEPMLDIKDWMRTDANGKGVINILSAEKLYQMPKLYAASLLWMLSELYEQLPEAGDLEKPKLVFFFDEAHLLFNDAPQVLLDKIEQVIRLIRSKGVGVWFVSQNPSDIPDNVLGQLGNRVQHALRAFTPKDQKAVKAAAQTMRANPAFDTEKAIQELGTGEALISFLDAKGSPSVVERAMVIAPCSRMGPVTEDERNGLINHSPVYGKYEDEVDRESAYEMLQKGFQASTEQQNNPPAKGKEVAVDDGILGGLKDILFGTTGPRGGKKDGVVQTMAKSAARQVTNQIVRGMLGSLLGGRRR | 5.04 ± 0.57 h | 5.07 ± 0.26 h | 4.73 ± 0.25 h | 3.263 ± 0.025 h | 4.77 ± 0.15 h | 9.88 ± 0.78 h | 4.98 ± 0.19 h | 5.1 ± 0.27 h | 5.39 ± 0.34 h | 9.77 ± 0.81 h | 8.27 ± 0.62 h | 5.66 ± 0.28 h
3 | MSEPMMWLLVRGVWETLAMTFVSGFFGFVIGLPVGVLLYVTRPGQIIANAKLYRTVSAIVNIFRSIPFIILLVWMIPFTRVIVGTSIGLQAAIVPLTVGAAPFIARMVENALLEIPTGLIEASRAMGATPMQIVRKVLLPEALPGLVNAATITLITLVGYSAMGGAVGAGGLGQIGYQYGYIGYNATVMNTVLVLLVILVYLIQFAGDRIVRAVTRK | 6.59 h | 5.881 ± 0.054 h | 5.76 ± 0.38 h | 3.25 ± 0.28 h | 6.095 ± 0.06 h | – | 6.5 h | 6.24 h | 6.38 h | 11.6 h | 11.6 ± 1.8 h | 6.63 ± 0.78 h
4 | MSEQFLYFLQQMFNGVTLGSTYALIAIGYTMVYGIIGMINFAHGEVYMIGSYVSFMIIAALMMMGIDTGWLLVAAGFVGAIVIASAYGWSIERVAYRPVRNSKRLIALISAIGMSIFLQNYVSLTEGSRDVALPSLFNGQWVVGHSENFSASITTMQAVIWIVTFLAMLALTIFIRYSRMGRACRACAEDLKMASLLGINTDRVIALTFVIGAAMAAVAGVLLGQFYGVINPYIGFMAGMKAFTAAVLGGIGSIPGAMIGGLILGIAEALSSAYLSTEYKDVVSFALLILVLLVMPTGILGRPEVEKV [P0AEX7] | 6.2 h | – | 6.44 ± 0.19 h | 2.75 ± 0.53 h | > 8 h | > 16 h | – | > 8 h | – | – | – | –
5 | MSEQLTDQVLVERVQKGDQKAFNLLVVRYQHKVASLVSRYVPSGDVPDVVQEAFIKAYRALDSFRGDSAFYTWLYRIAVNTAKNYLVAQGRRPPSSDVDAIEAENFESGGALKEISNPENLMLSEELRQIVFRTIESLPEDLRMAITLRELDGLSYEEIAAIMDCPVGTVRSRIFRAREAIDNKVQPLIRR [P0AGB6] | 5.283 ± 0.0063 h | 7.1 ± 0.53 h | 6.14 ± 0.71 h | 3.49 ± 0.3 h | 5.76 ± 0.9 h | 12.6 ± 0.15 h | 6.37 ± 0.46 h | 6.86 ± 0.17 h | 5.85 ± 0.13 h | 11.8 ± 1.1 h | 11.3 ± 1.4 h | 5.63 ± 0.5 h
6 | MSERLSITPLGPYIGAQISGADLTRPLSDNQFEQLYHAVLRHQVVFLRDQAITPQQQRALAQRFGELHIHPVYPHAEGVDEIIVLDTHNDNPPDNDNWHTDVTFIETPPAGAILAAKELPSTGGDTLWTSGIAAYEALSVPFRQLLSGLRAEHDFRKSFPEYKYRKTEEEHQRWREAVAKNPPLLHPVVRTHPVSGKQALFVNEGFTTRIVDVSEKESEALLSFLFAHITKPEFQVRWRWQPNDIAIWDNRVTQHYANADYLPQRRIMHRATILGDKPFYRAG | 4.38 ± 0.24 h | 2.1 h | 2.36 ± 0.22 h | 2.88 ± 0.46 h | 1.58 h | 7.36 ± 0.57 h | 4.17 ± 3.1 h | 2.39 ± 0.83 h | 4.02 h | 5.19 ± 0.73 h | 2.31 ± 0.34 h | 4.3 h
